The test system of this series is T1, LexA2 recombinant (Leptospira interrogans serovar Copenhageni), ORF:e6531adf.
T1 sequence: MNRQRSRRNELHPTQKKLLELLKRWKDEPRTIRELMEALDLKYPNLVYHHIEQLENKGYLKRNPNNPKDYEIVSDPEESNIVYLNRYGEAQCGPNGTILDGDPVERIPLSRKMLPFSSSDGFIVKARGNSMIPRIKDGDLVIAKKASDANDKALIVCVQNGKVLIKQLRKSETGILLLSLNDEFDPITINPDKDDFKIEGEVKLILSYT
The series is described as follows: EMSA. Conditions: Roche DIG Gel Shift Kit binding buffer (composition and pH not given), poly[d(A-T)], 1.55 fmol probe, 20 min on ice; 5% native gel, 0.5x TBE, 4 C. A general note: A gel shift assay detects complexes by their altered migration in electrophoresis.

“GTTCATTTCTTCTGGATCGTTGCCTATTCATACTACTAAGTACATGATTAGGAAAATTAACTTAAAAAGCAAGAAAAAAATCAACTCGCATCTTGACATTTAAACTTTGTACAAGTATAATTACAATTAAAGCAATGGGACATATTCCCAAAGGAGACATGAATGTCTAAGAACATTAAAGTTACCAAAGAATCGAATACAGGGCTCAATAAAGAATTCTACGATCCTTCCAGAGGAAAGTC (double strand) [lexA2up]”: the binding entry is on record as “binds”.

The values are drawn from publication PMC3789691.
